This note sets out measurements from US20250011869A1, “TLR3 INHIBITORS FOR USE IN THE TREATMENT OF DISEASES ASSOCIATED WITH CARDIOVASCULAR CALCIFICATION” (priority 2021, published 2025).

The assay relates to TLR3 and IFN-β. The assay can be described thus: RT-PCR of human dermal fibroblasts (wild type, empty vector control, Tlr3−/− CRISPR). The format is cell-based. The following applies: 5 μg/ml, 6 h. From the text:
Human dermal fibroblasts WT and Tlr3^−/− were kindly provided by the Jean-Laurent Casanova group and cultivated in DMEM with 4.5 g/L glucose (Lonza, Basel, Switzerland), 10% FCS (Sigma, St. Louis, MO), penicillin, streptomycin and L-Glutamine. Human dermal fibroblasts CTR cells were provided by the Villunger group and cultivated in DMEM with 4.5 g/L glucose (Lonza, Basel, Switzerland), 10% FCS (Sigma, St. Louis, MO), penicillin, streptomycin and L-Glutamine.
All cells were cultivated under standard conditions (37° C., supplied with 5% CO2). Passaging of the cells was performed at 70-90% confluency, and cells were only used until passage 7 as described previously^6. Polyinosinic: polycytidylic acid (Poly(I:C); Invivogen, San Diego, CA) was used to stimulate cells at a concentration of either 20 μg/mL or 5 μg/ml, depending on the assay. For blockade of TLR3, the commercially available dsRNA/TLR3 inhibitor ((R)-2-(3-Chloro-6-fluorobenzo [b] thiophene-2-carboxamido)-3-phenyl-propanoic acid) was used (Merck, Darmstadt, Germany) at a concentration of 1 μg/ml as described previously^1,7. LY294002 (Invivogen, San Diego, CA), a PI3K inhibitor, was used at a concentration of 10 μM. For blockade of IFNAR1, a specific blocking antibody (Invitrogen, Carlsbad, CA) was used at a concentration of 4 μg/ml. A stable HEK (human embryonic kidney) reporter cell line (TLR3/ISRE LUCPorter; Imgenex, USA) was purchased for luminometer assay experiments. Cells were cultivated according to the manufacturer's protocol in DMEM with 4.5 g/L glucose (Lonza, Switzerland), 10% FCS (Sigma, St. Louis, MO), penicillin/streptomycin, and 4 mM L-glutamine and […] puromycin (Gibco, USA) as selection agent. Reporter experiments were performed as described previously^8. For the protein expression SF21 cells were purchased at ThermoFisher (#11497013) and cultivated in Gibco™ Sf-900™ SFM supplemented with penicillin, streptomycin and L-Glutamine. In vitro stretch was applied using a Flexcell bioreactor (Flexcell International Corporation, Burlington, NC) applying 15% cyclic strain as described previously^9.
RT-PCR was performed as described previously^17. Total RNA was extracted from homogenized tissue or cell lysates using the Total RNA Miniprep Kit (New England BioLabs, Frankfurt, Germany) according to the manufacturer's instructions. We performed the PCR reaction in a final volume of 12.5 μL containing 2.5 μL of cDNA, 6.25 μL of Master Mix, 1 μL of fluorogenic hybridization probe, 10 μM of primer and 2.75 μL of distilled water. […] The result for the relative gene expression was calculated by the 2-DDCt method. Mean Ct values were calculated from double determinations and samples were considered negative if the Ct values exceeded 4017. […]

B1: BGN: proteoglycan biglycan (BGN), a structural protein of the extracellular matrix (ECM) (protein)
chain: DEEASGAETTSGIPDLDSLPPTYSAMCPFGCHCHLRVVQCSDLGLKAVPKEISPDTTLLDLQNNDISELRKDDFKGLQHLYALVLVNNKISKIHEKAFSPLRKLQKLYISKNHLVEIPPNLPSSLVELRIHDNRIRKVPKGVFSGLRNMNCIEMGGNPLENSGFEPGAFDGLKLNYLRISEAKLTGIPKDLPETLNELHLDHNKIQAIELEDLLRYSKLYRLGLGHNQIRMIENGSLSFLPTLRELHLDNNKLSRVPAGLPDLKLLQVVYLHTNNITKVGVNDFCPVGFGVKRAYYNGISLFNNPVPYWEVQPATFRCVTDRLAIQFGNYKK
For B1, the “transcription of TLR3 and IFN-β” value by setting is: (Tlr3−/− fibroblasts) “no response”; (wild type and empty vector control fibroblasts) “induced transcription of TLR3 and IFN-β”.
